{"source": "patent US20230295327A1", "target": "IL-12 receptor of human T cells (human) (UniProt P42701)", "sequence (Q99665 24-862, chain 2 of 2, other chains not shown)": "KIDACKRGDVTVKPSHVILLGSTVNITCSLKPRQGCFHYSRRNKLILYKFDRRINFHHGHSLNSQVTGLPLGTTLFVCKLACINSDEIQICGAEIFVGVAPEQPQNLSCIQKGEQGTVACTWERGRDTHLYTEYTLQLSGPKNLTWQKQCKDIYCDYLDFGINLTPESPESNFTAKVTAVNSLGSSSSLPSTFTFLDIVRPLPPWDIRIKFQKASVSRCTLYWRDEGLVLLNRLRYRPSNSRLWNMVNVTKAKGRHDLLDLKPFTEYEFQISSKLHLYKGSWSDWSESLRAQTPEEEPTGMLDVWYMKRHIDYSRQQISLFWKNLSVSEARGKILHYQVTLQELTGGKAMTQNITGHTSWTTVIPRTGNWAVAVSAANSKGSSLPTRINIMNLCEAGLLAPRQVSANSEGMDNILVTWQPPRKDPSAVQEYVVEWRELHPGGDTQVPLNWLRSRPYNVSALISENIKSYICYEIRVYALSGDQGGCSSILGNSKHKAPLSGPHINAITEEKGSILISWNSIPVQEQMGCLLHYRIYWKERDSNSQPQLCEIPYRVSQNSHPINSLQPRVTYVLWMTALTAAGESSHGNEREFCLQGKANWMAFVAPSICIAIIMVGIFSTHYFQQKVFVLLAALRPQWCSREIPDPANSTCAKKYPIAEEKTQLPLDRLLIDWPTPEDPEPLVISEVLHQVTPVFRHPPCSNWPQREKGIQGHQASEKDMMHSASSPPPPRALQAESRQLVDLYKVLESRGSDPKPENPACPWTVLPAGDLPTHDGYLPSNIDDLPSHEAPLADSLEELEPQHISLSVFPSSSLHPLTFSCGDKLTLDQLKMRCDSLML", "assay": "cell-based or functional assay"}
{"substance": "recombinant human IL-12 (from UniProt P29459 23-219; P29460 23-328) (ligand)", "values": [{"measurement": "p-STAT4 (Tyr693) AlphaLISA in activated human T cells, EC50", "value": 0.195, "unit": "ng/mL"}]}
